Measured values as given in patent US20220267469A1 (LIPUM, published 2022).

B1: S-SL048-10 hIgG4 S228P (antibody, V domains shown)
VH: QVQLVQSGAEVKKPGASVKVSCKASGYTFTSYNMHWVRQAPGQGLEWIGVINPSDGYTSYAQKFQGRVTMTRDTSTSTVYMELSSLRSEDTAVYYCARDYYGSSPLGYWGQGTLVTVSS
VL: DIQMTQSPSSLSASVGDRVTITCRASPSISYLNWYQQKPGKAPKLLIYATSRLPSGVPSRFSGSGSGTDFTLTISSLQPEDFATYYCQQRSSSPTFGQGTKLEIK
notes: Tested as human IgG4 S228P
B2: S-SL048-108 hIgG4 S228P (antibody, V domains shown)
VH: QVQLVQSGAEVKKPGASVKVSCKASGYTFTSYNMHWVRQAPGQGLEWIGVINPSDGATSYAQKFKGRVTMTRDTSTSTVYMELSSLRSEDTAVYYCARDYYGSSPLGYWGQGTLVTVSS
VL: DIQMTQSPSSLSASVGDRVTITCSASPSISYLNWYQQKPGKAPKLLIYATSSLASGVPSRFSGSGSGTDFTLTISSLQPEDFATYYCQQRSSSPTFGQGTKLEIK
notes: Tested as human IgG4 S228P
B3: S-SL048-79 hIgG4 S228P (antibody, V domains shown)
VH: QVQLVQSGAEVKKPGASVKVSCKASGYTFTSYNMHWVRQAPGQGLEWMGVINPSDGATSYAQKFQGRVTMTRDTSTSTVYMELSSLRSEDTAVYYCARDYYGSSPLGYWGQGTLVTVSS
VL: DIQMTQSPSSLSASVGDRVTITCSASQSISYLNWYQQKPGKAPKLLIYAASRLPSGVPSRFSGSGSGTDFTLTISSLQPEDFATYYCHQRSSYPTFGQGTKLEIK
notes: Tested as human IgG4 S228P
B4: S-SL048-18 hIgG4 S228P (antibody, V domains shown)
VH: QVQLVQSGAEVKKPGASVKVSCKASGYTFTSYNMHWVRQAPGQGLEWMGVINPSDGATSYTQKFKGRVTMTRDTSTSTVYMELSSLRSEDTAVYYCARDYYGSSPLGYWGQGTLVTVSS
VL: DIQMTQSPSSLSASVGDRVTITCRASSSISYLNWYQQKPGKAPKLLIYATSRLQSGVPSRFSGSGSGTDFTLTISSLQPEDFATYYCHQRSSTPTFGQGTKLEIK
notes: Tested as human IgG4 S228P
B5: S-SL048-104 hIgG4 S228P (antibody, V domains shown)
VH: QVQLVQSGAEVKKPGASVKVSCKASGYTFTSYNMHWVRQAPGQGLEWMGVINPGDGATSYDQKFKGRVTMTRDTSTSTVYMELSSLRSEDTAVYYCARDYYGSSPLGYWGQGTLVTVSS
VL: DIQMTQSPSSLSASVGDRVTITCSASSSISYLHWYQQKPGKAPKLLIYAASRLASGVPSRFSGSGSGTDFTLTISSLQPEDFATYYCHQRSSTPTFGQGTKLEIK
notes: Tested as human IgG4 S228P
B6: S-SL048-81 hIgG4 S228P (antibody, V domains shown)
VH: QVQLVQSGAEVKKPGASVKVSCKASGYTFTSYNMHWVRQAPGQGLEWIGVINPGDGATSYAQKFQGRVTMTRDTSTSTVYMELSSLRSEDTAVYYCARDYYGSSPLGYWGQGTLVTVSS
VL: DIQMTQSPSSLSASVGDRVTITCRASSSISYMHWYQQKPGKAPKLLIYAASSLQSGVPSRFSGSGSGTDFTLTISSLQPEDFATYYCHQRSSSPTFGQGTKLEIK
notes: Tested as human IgG4 S228P
B7: S-SL048-43 hIgG4 S228P (antibody, V domains shown)
VH: QVQLVQSGAEVKKPGASVKVSCKASGYTFTSYNMHWVRQAPGQGLEWMGVINPGDGATSYTQKFQGRVTMTRDTSTSTVYMELSSLRSEDTAVYYCARDYYGSSPLGYWGQGTLVTVSS
VL: DIQMTQSPSSLSASVGDRVTITCRASPSISYMNWYQQKPGKAPKLLIYAASSLPSGVPSRFSGSGSGTDFTLTISSLQPEDFATYYCQQRSSSPTFGQGTKLEIK
notes: Tested as human IgG4 S228P
B8: S-SL048-17 hIgG4 S228P (antibody, V domains shown)
VH: QVQLVQSGAEVKKPGASVKVSCKASGYTFTSYNMHWVRQAPGQGLEWMGVINPGDGYTSYTQKFKGRVTMTRDTSTSTVYMELSSLRSEDTAVYYCARDYYGSSPLGYWGQGTLVTVSS
VL: DIQMTQSPSSLSASVGDRVTITCRASQSISYLNWYQQKPGKAPKLLIYAASKLPSGVPSRFSGSGSGTDFTLTISSLQPEDFATYYCQQRSSSPTFGQGTKLEIK
notes: Tested as human IgG4 S228P
B9: S-SL048-107 hIgG4 S228P (antibody, V domains shown)
VH: QVQLVQSGAEVKKPGASVKVSCKASGYTFTSYNMHWVRQAPGQGLEWMGVINPGDGATSYNQKFQGRVTMTRDTSTSTVYMELSSLRSEDTAVYYCARDYYGSSPLGYWGQGTLVTVSS
VL: DIQMTQSPSSLSASVGDRVTITCRASPSISYLNWYQQKPGKAPKLLIYATSSLPSGVPSRFSGSGSGTDFTLTISSLQPEDFATYYCQQRSSSPTFGQGTKLEIK
notes: Tested as human IgG4 S228P

What was measured:
Biotinylated human BSSL [1] = molecular target: T1, Biotinylated human BSSL (human, UniProt P19835 21-753, Biotinylated on glycosacarides, 30-40 biotin/BSSL); assay: flow cytometry displacement assay; 3.0 ug antibody, 1 ug b-hBSSL
T1 construct: hBSSL biotinylated in house; also called b-hBSSL; human BSSL-biotin
T1 sequence: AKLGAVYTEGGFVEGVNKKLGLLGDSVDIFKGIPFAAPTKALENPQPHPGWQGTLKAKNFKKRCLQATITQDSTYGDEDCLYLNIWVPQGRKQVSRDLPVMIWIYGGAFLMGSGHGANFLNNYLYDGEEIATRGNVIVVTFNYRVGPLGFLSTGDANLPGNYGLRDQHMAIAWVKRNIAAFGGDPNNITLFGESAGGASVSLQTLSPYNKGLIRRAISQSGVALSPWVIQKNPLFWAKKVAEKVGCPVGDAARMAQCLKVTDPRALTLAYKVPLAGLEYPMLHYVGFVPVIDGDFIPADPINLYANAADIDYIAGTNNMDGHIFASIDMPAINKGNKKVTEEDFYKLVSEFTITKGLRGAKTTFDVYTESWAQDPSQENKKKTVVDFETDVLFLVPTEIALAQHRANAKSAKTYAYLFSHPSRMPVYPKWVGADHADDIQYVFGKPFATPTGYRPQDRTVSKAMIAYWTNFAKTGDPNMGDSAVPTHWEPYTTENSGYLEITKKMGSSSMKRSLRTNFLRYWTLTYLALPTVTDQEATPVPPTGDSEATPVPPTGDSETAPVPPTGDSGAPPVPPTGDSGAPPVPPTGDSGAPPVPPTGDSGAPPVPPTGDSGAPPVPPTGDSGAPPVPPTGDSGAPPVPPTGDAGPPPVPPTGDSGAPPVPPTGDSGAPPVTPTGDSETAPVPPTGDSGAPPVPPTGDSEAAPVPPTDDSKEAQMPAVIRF
Description: (§1) The 28 BSSL-specific hIgG4 antibodies and the five reference antibodies at different concentrations (ranging from 0.5 μg to 3.0 μg per reaction; see Table 10) were added to b-hBSSL (1 μg per reaction, see Table 2) in round-bottom polystyrene tubes, lx PBS (pH 7.4) was added to a final volume of 20 μl and the antibody/b-hBSSL mixtures were incubated for 30 min. at +4° C. to facilitate binding of antibodies to BSSL. Buffy coat (50 μl) was then added to each antibody/b-hBSSL mixture and incubation continued for another 30 min at +4° C. Thereafter, 2 ml of FACS lysing solution (BD Biosciences) was added and the cells were incubated for 10 min at room temperature in order to lyse erythrocytes and fix the white blood cells. The cells were then centrifuged for 5 min. at 200×g, the resulting pellets were washed by adding 2 ml of FACS buffer (1×PBS supplemented with 1% FCS and 0.1% NaN3) and centrifuged again. Finally, the supernatants were discarded and the cells were resuspended in the last drop of liquid, approximately 50 μl.
(§2) 5 μl of BV421-labelled anti-human CD14 (BD Biosciences) and 5 μl of BB515-labelled streptavidin (BD Biosciences) was added to each tube and incubated for 30 min, at +4° C., protected from light. Thereafter, cells were washed twice with FACS buffer, resuspended in 500 μl FACS buffer, and run on BD LSRII flow cytometer (BD Biosciences). Finally, data were analyzed using FlowJo software (BD Biosciences).

Biotinylated human BSSL [2] = molecular target: T1, Biotinylated human BSSL; assay: flow cytometry displacement assay; 1.5 ug antibody, 1 ug b-hBSSL
Description: as §1, §2

[3] = molecular target: T2, Human BSSL (bile salt-stimulated lipase), native (human, UniProt P19835 21-753); assay: SPR single cycle kinetics, hIgG4 S228P captured by anti-Fab
T2 construct: Native full-length protein purified from human milk (Astra Hässle AB); also called hBSSL; non-biotinylated human BSSL
T2 sequence: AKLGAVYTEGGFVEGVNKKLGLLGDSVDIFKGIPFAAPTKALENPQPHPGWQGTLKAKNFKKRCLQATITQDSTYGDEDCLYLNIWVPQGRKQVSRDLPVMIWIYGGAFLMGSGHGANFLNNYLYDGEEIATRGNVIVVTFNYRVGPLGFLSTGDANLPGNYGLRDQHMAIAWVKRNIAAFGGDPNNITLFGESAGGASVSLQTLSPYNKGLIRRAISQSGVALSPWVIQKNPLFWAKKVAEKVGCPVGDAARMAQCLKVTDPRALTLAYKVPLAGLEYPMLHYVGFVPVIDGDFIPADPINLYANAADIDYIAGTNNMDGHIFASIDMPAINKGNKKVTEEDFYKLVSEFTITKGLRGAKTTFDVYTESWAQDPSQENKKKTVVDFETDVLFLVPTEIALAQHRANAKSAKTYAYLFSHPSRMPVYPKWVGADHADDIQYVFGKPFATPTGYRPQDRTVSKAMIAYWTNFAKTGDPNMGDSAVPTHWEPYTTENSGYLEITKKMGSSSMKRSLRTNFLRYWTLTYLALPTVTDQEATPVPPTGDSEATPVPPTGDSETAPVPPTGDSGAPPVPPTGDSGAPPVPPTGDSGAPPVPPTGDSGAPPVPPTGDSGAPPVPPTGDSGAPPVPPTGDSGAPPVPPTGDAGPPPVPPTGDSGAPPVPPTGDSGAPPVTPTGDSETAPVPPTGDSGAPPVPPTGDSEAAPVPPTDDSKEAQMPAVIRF
Description: (§3) Kinetic parameters of the hIgG4 S228P clones were determined by SPR using BIACORE® T200 (GE Healthcare). Single cycle kinetics was used to measure the affinity of the purified hIgG4 molecules to human and mouse BSSL. An anti-Fab antibody (GE Healthcare, #28958325) was immobilized on a CM5 S sensor chip by primary amine coupling using NHS-EDC chemistry. hIgG4 was captured by the anti-Fab antibody, and subsequently, five different concentrations of hBSSL (1:5 dilutions starting from 50 nM) or mBSSL (1:5 dilutions starting from 500 nM) were injected over the surface. The sensor chip surface was regenerated with 10 mM glycine-HCl pH 2.1. For binding to human BSSL, single cycle kinetic data was fitted to a 1:1 binding model and kinetic parameters were retrieved using software BlAevaluation. For mouse BSSL, a steady state analysis was performed by plotting the response level at equilibrium against each concentration, and KD values were retrieved by the BlAevalution software.

Mouse BSSL, recombinant = molecular target: T3, Mouse BSSL, recombinant (mouse, UniProt Q64285 21-599); assay: SPR steady state, hIgG4 S228P captured by anti-Fab
T3 construct: Bought (R&D Systems, Cat. no 5658-CE); also called mBSSL; murine BSSL
T3 sequence: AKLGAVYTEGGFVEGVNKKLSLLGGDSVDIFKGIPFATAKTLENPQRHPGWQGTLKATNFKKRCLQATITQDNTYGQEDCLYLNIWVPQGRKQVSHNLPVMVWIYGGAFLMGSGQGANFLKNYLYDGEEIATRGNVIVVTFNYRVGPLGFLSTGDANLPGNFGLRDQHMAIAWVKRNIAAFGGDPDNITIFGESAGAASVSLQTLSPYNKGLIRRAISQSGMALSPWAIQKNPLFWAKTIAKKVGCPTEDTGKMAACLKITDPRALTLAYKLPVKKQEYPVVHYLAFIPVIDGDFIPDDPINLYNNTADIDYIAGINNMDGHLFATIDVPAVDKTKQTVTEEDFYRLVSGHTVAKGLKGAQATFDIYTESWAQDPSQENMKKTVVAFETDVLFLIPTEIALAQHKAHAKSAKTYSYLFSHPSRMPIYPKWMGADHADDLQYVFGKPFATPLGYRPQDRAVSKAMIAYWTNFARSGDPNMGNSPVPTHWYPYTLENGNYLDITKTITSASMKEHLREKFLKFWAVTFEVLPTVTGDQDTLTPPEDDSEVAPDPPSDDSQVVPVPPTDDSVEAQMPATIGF
Description: as §3

| Binder | percentage reduction of b-hBSSL binding to CD14+ monocytes (Biotinylated human BSSL [1]) [%] | percentage reduction of b-hBSSL binding to CD14+ monocytes (Biotinylated human BSSL [2]) [%] | Kd [3] [nM] | Kd (Mouse BSSL, recombinant) [nM] |
| --- | --- | --- | --- | --- |
| B1 | 42 | 34 | 2.2 | 57 |
| B2 | 48 | 41 | 1.3 | 149 |
| B3 | 52 | 20 | 5 | 48 |
| B4 | 61 | 58 | 2.3 | 68 |
| B5 | 44 | 2 | 3.3 | 111 |
| B6 | 62 | 31 | 4.4 | 60 |
| B7 | 55 | 37 | 1.2 | 137 |
| B8 | 36 | 16 | 4.3 | 68 |
| B9 | 49 | 37 | 1.2 | 98 |
